The results in this text go back to PMC8766471, “Mutations affecting the N-terminal domains of SHANK3 point to different pathomechanisms in neurodevelopmental disorders” (Scientific Reports, 2022).

The labels stand for the following.
B1: Shank3 Ank repeats (residues 99-348), WT, recombinant (domain or fragment, rat, UniProt Q9JLU4 99-348, looked up)
chain: QNLIDDKQFAKLHTKANLKKFMDYVQLHSTDKVARLLDKGLDPNFHDPDSGECPLSLAAQLDNATDLLKVLRNGGAHLDFRTRDGLTAVHCATRQRNAGALTTLLDLGASPDYKDSRGLTPLYHSALGGGDALCCELLLHDHAQLGTTDENGWQEIHQACRFGHVQHLEHLLFYGANMGAQNASGNTALHICALYNQESCARVLLFRGANKDVRNYNSQTAFQVAIIAGNFELAEVIKTHKDSDVVPFRE
notes: Shank3, rat, Ank repeats, residues 99-348; expressed from pET-SUMO; also called WT Ank; WT Ank domain; source: E. coli BL21*(DE3), purified (HisTrap HP, SUMO protease, reverse HisTrap pass)
B2: isolated SPN domain of Shank3, recombinant (domain or fragment, rat, UniProt Q9JLU4 1-92, looked up)
chain: MDGPGASAVVVRVGIPDLQQTKCLRLDPTAPVWAAKQRVLCALNHSLQDALNYGLFQPPSRGRAGKFLDEERLLQDYPPNLDTPLPYLEFRY
notes: Shank3 SPN domain, isolated; the methods of expression list only residues 1-348 and 99-348; also called WT SPN

Assay [1] deals with B2. Kind of assay: ITC; 25 °C; 20 mM Tris pH 7.5, 1 M NaCl, 0.5 mM TCEP; 25 µM SPN in the cell, 400 µM WT Ank or P141A Ank in the syringe; single-site-binding model. Particulars: both partners purified.
Assay [2] deals with B1. The assay is described as above. Particulars: both partners purified.

Turning to B1, the dH in assay [1] was -3.7 kcal/mol.

Turning to B2, the Kd in assay [2] came out at 19 µM.
